Measurements reported in the supplement of paper PMC7877785.
± gives the uncertainty stated by the source.

Assay: self-splicing fitness, log relative to wild type (ln ratio); higher = more splicing; Tetrahymena group I intron in knt gene, E. coli kanamycin selection, DiMSum; sequences stand for … in CUCUCU…GGAGGGAAAAGUUAUCAGGCAUGCACCUGGUAGCUAGUCUUUAAACCAAUAGAUUGCAUCGGUUUAAAAGGCAAGACCGUCAAAUUGCGGGAAAGGGGUCAACAGCCGUUCAGUACCAAGUCUCAGGGGAAACUUUGAGAUGGCCUUGCAAAGGGUAUGGUAAUAAGCUGACGGACAUGGUCCUAACCACGCAGCCAAGUCCUAAGUCAACAGAUCUUCUGUUGAUAUGGAUGCAGUUCACAGACUAAAUGUCGGUCGGGGAAGAUGUAUUCUUCUCAUAAGAUAUAGUCGGACCUCUCCUUAAUGGGAGCUAGCGGAUGAAGUGAUGCAACACUGGAGCCGCUGGGAACUAAUUUGUAUGCGAAAGUAUAUUGAUUAGUUUUGGAGUACUCGUGGUCG
How it was run: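 DiMSum derived fitness as the error-weighted combination of fold changes across replicates, kanamycin versus no kanamycin, normalised to wild type. E. coli BL21(DE3) held the library, which randomised all eight P1ex-region intron nucleotides within the knt kanamycin-resistance gene on pET-22b(+). Six replicate transformations grew overnight at 37°C or 30°C on LB agar with or without 25 μg/mL kanamycin, also containing 100 μg/mL carbenicillin, 50 μM IPTG and 0.2% rhamnose, and pooled colonies were amplicon-sequenced on an Illumina HiSeq 2500.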

Sequence | self-splicing fitness (ln) (30 °C) | self-splicing fitness (ln) (37 °C)
GUGGAGCAAUAUUACGUUAG | -3.94 ± 0.24 | -2.35 ± 0.2
GUGUAGCAAUAUUACGAAAG | -2.33 ± 0.24 | -1.4 ± 0.42
GUGUAGCAAUAUUACGAAGC | -2.07 ± 0.17 | -0.684 ± 0.23
GUGUAGCAAUAUUACGAGGA | -2.9 ± 0.44 | 
GUGUAGCAAUAUUACGCCUA | -1.92 ± 0.26 | -0.813 ± 0.24
GUGUAGCAAUAUUACGCGAC | -1.33 ± 0.45 | -1.02 ± 0.27
GUGUAGCAAUAUUACGCUCG | -1 ± 0.18 | -0.53 ± 0.21
GUGUAGCAAUAUUACGCUGC | -3.26 ± 0.27 | -1.08 ± 0.23
GUGUAGCAAUAUUACGCUUU | -3.2 ± 0.21 | -2.54 ± 0.22
GUGUAGCAAUAUUACGGCCC | 0.713 ± 0.23 | 0.583 ± 0.3
GUGUAGCAAUAUUACGGCUG | -3.23 ± 0.23 | -1.28 ± 0.25
GUGUAGCAAUAUUACGGGCG | -2.61 ± 0.27 | -1.21 ± 0.18
GUGUAGCAAUAUUACGGUGC | -2.8 ± 0.21 | -2.18 ± 0.18
GUGUAGCAAUAUUACGUAAG | -1.56 ± 0.1 | -1.57 ± 0.16
GUGUAGCAAUAUUACGUCGA | -1.11 ± 0.14 | -0.586 ± 0.12
GUGUAGCAAUAUUACGUCGG | -2.7 ± 0.24 | -2.73 ± 0.33
GUGUAGCAAUAUUACGUGUU | -3.14 ± 0.17 | -1.58 ± 0.12
GUGUAGCAAUAUUACGUUCU | -0.842 ± 0.09 | 0.00858 ± 0.11
GUGUAGCAAUAUUACGUUGA | -1.73 ± 0.14 | -3.07 ± 0.36
GUUAAGCAAUAUUACGACCC |  | -0.221 ± 0.44
GUUAAGCAAUAUUACGACCG | -2.84 ± 0.48 | -1.22 ± 0.4
GUUAAGCAAUAUUACGAUAG |  | -2.07 ± 0.34
GUUAAGCAAUAUUACGAUCC | -1.62 ± 0.13 | 0.0862 ± 0.16
GUUAAGCAAUAUUACGCACC | -2.89 ± 0.3 | -2.13 ± 0.32
GUUAAGCAAUAUUACGCCCA | 0.115 ± 0.22 | -0.355 ± 0.29

Sequence | self-splicing fitness (ln) (30 °C) | self-splicing fitness (ln) (37 °C)
GUUAAGCAAUAUUACGCGUU | -0.757 ± 0.08 | -1.07 ± 0.12
GUUAAGCAAUAUUACGGAAC |  | -1.43 ± 0.34
GUUAAGCAAUAUUACGGAAU | -2.75 ± 0.14 | -1.39 ± 0.13
GUUAAGCAAUAUUACGGACU | -2.88 ± 0.2 | -1.8 ± 0.2
GUUAAGCAAUAUUACGGGGU | -2.73 ± 0.28 | -2.88 ± 0.35
GUUAAGCAAUAUUACGGUAA | -1.5 ± 0.15 | -1.28 ± 0.14
GUUAAGCAAUAUUACGGUGA | -1.86 ± 0.15 | -1.09 ± 0.12
GUUAAGCAAUAUUACGUAAG | -0.147 ± 0.098 | -0.0396 ± 0.13
GUUAAGCAAUAUUACGUCCU | -0.303 ± 0.081 | 0.0564 ± 0.083
GUUAAGCAAUAUUACGUUCG | -1.6 ± 0.13 | -0.376 ± 0.16
GUUCAGCAAUAUUACGACGU | 0.000808 ± 0.063 | 0.108 ± 0.08
GUUCAGCAAUAUUACGAUCA | -1.81 ± 0.19 | -0.536 ± 0.14
GUUCAGCAAUAUUACGAUCG | -0.518 ± 0.13 | -0.548 ± 0.16
GUUCAGCAAUAUUACGAUUU | -0.241 ± 0.078 | 0.331 ± 0.087
GUUCAGCAAUAUUACGCAUG | -0.538 ± 0.1 | -1.02 ± 0.13
GUUCAGCAAUAUUACGCCAA | -1.32 ± 0.21 | -1.72 ± 0.18
GUUCAGCAAUAUUACGCUCA | -0.457 ± 0.11 | -0.298 ± 0.13
GUUCAGCAAUAUUACGCUCU | -0.149 ± 0.09 | 0.0537 ± 0.097
GUUCAGCAAUAUUACGCUUU | -0.726 ± 0.088 | 0.0124 ± 0.11
GUUCAGCAAUAUUACGGCAC | -0.46 ± 0.21 | 0.473 ± 0.24
GUUCAGCAAUAUUACGGCCC | -0.59 ± 0.19 | 0.24 ± 0.24
GUUCAGCAAUAUUACGGCCG | -2.57 ± 0.24 | -0.72 ± 0.17
GUUCAGCAAUAUUACGGCGG | -4.13 ± 0.47 | -2.06 ± 0.38
GUUCAGCAAUAUUACGGUCA | -1.42 ± 0.12 | -0.536 ± 0.086
GUUCAGCAAUAUUACGGUUU | -0.523 ± 0.052 | -0.0386 ± 0.061

Sequence | self-splicing fitness (ln) (30 °C) | self-splicing fitness (ln) (37 °C)
GUUCAGCAAUAUUACGUCCA | -0.981 ± 0.17 | -1.05 ± 0.21
GUUCAGCAAUAUUACGUCGU | -0.64 ± 0.098 | 0.241 ± 0.11
GUUCAGCAAUAUUACGUUGU | -1.68 ± 0.096 | -0.287 ± 0.11
GUUGAGCAAUAUUACGAAUA | -1.6 ± 0.16 | -1.44 ± 0.18
GUUGAGCAAUAUUACGACUU | -2.53 ± 0.2 | -1.92 ± 0.21
GUUGAGCAAUAUUACGAGAC |  | -0.388 ± 0.31
GUUGAGCAAUAUUACGAUAA | -3.96 ± 0.46 | -1.94 ± 0.26
GUUGAGCAAUAUUACGAUAU | -2.32 ± 0.13 | -1.31 ± 0.12
GUUGAGCAAUAUUACGAUUG | -4.05 ± 0.32 | -1.87 ± 0.27
GUUGAGCAAUAUUACGCCGC | -3.06 ± 0.44 | -2.15 ± 0.5
GUUGAGCAAUAUUACGCGCG | -1.82 ± 0.21 | -1.51 ± 0.23
GUUGAGCAAUAUUACGGAAU | -3.08 ± 0.31 | 
GUUGAGCAAUAUUACGGGAG |  | -2.9 ± 0.38
GUUGAGCAAUAUUACGGGUC | -2.23 ± 0.26 | -1.89 ± 0.28
GUUGAGCAAUAUUACGGUUC | -3.63 ± 0.4 | -1.58 ± 0.26
GUUGAGCAAUAUUACGUAGA |  | -0.549 ± 0.24
GUUGAGCAAUAUUACGUAGG | -3.49 ± 0.22 | -2.93 ± 0.37
GUUGAGCAAUAUUACGUAUC | -2.91 ± 0.15 | -1.15 ± 0.15
GUUGAGCAAUAUUACGUUUG | -4.75 ± 0.32 | -2.6 ± 0.24
GUUUAGCAAUAUUACGAAAG | -1.07 ± 0.18 | -0.341 ± 0.22
GUUUAGCAAUAUUACGACCA | -1.56 ± 0.35 | -0.943 ± 0.35
GUUUAGCAAUAUUACGACGA | -0.271 ± 0.17 | -0.957 ± 0.24
GUUUAGCAAUAUUACGACUG | -4.08 ± 0.39 | -0.416 ± 0.23
GUUUAGCAAUAUUACGAUGC | -0.832 ± 0.089 | 0.32 ± 0.12
GUUUAGCAAUAUUACGAUUA | -1.93 ± 0.16 | -1.01 ± 0.2

Sequence | self-splicing fitness (ln) (30 °C) | self-splicing fitness (ln) (37 °C)
GUUUAGCAAUAUUACGCCAA | -1.57 ± 0.27 | -1.58 ± 0.24
GUUUAGCAAUAUUACGCCGA | -2.93 ± 0.4 | 
GUUUAGCAAUAUUACGCUAA | -3.38 ± 0.32 | -1.4 ± 0.21
GUUUAGCAAUAUUACGCUCC | -1.82 ± 0.37 | 1.01 ± 0.34
GUUUAGCAAUAUUACGGACG | -1.76 ± 0.15 | -0.693 ± 0.15
GUUUAGCAAUAUUACGGGAA | -2.96 ± 0.23 | -2.04 ± 0.19
GUUUAGCAAUAUUACGGGGG | -3.68 ± 0.37 | -1.82 ± 0.26
GUUUAGCAAUAUUACGGUUA | -1.68 ± 0.18 | -0.49 ± 0.12
GUUUAGCAAUAUUACGUACA | -0.582 ± 0.2 | -0.508 ± 0.22
GUUUAGCAAUAUUACGUGCA | -0.885 ± 0.099 | -0.958 ± 0.11
GUUUAGCAAUAUUACGUUUC | -2.17 ± 0.21 | -2.07 ± 0.23
UAAAAGCAAUAUUACGACAC | -1.88 ± 0.15 | -0.594 ± 0.17
UAAAAGCAAUAUUACGAUCG | 0.0746 ± 0.077 | 0.385 ± 0.1
UAAAAGCAAUAUUACGCCUA | 0.161 ± 0.073 | -0.367 ± 0.081
UAAAAGCAAUAUUACGCUAU | -2.11 ± 0.15 | -2.2 ± 0.19
UAAAAGCAAUAUUACGCUCA | -0.334 ± 0.11 | 0.128 ± 0.12
UAAAAGCAAUAUUACGCUCG | -0.628 ± 0.084 | 0.0432 ± 0.099
UAAAAGCAAUAUUACGGCCA | 0.0708 ± 0.15 | 0.573 ± 0.19
UAAAAGCAAUAUUACGGCGC | -1.64 ± 0.12 | -0.483 ± 0.13
UAAAAGCAAUAUUACGGUAA | -1.94 ± 0.14 | -0.97 ± 0.098
UAAAAGCAAUAUUACGUCAC | -3 ± 0.2 | -2.25 ± 0.28
UAAAAGCAAUAUUACGUCAU | -3.62 ± 0.14 | -1.88 ± 0.1
UAAAAGCAAUAUUACGUGAC |  | -3.43 ± 0.46
